Measurements taken from US20140309177.

Key:
Experiment in all cases: cell_activity
Details in all cases: HEK293T luciferase reporter, single TALE-TF
[1] = target: CEACAM5 TALE B TALE-TF (VP64) (synthetic (Xanthomonas TALE)?) (UniProt Q56830)
[2] = test system: CEACAM5 TALE C TALE-TF (VP64) (synthetic (Xanthomonas TALE)?)
[3] = target: CEACAM5 TALE D TALE-TF (VP64) (synthetic (Xanthomonas TALE)?) (UniProt Q56830)
[4] = target: CEACAM5 TALE E TALE-TF (VP64) (synthetic (Xanthomonas TALE)?) (UniProt Q56830)
[5] = test system: CEACAM5 TALE F TALE-TF (VP64) (synthetic (Xanthomonas TALE)?)
[6] = target: IL1RN TALE-A TALE-TF (VP64) (synthetic (Xanthomonas TALE)?) (UniProt Q56830)
[7] = test system: IL1RN TALE-B TALE-TF (VP64) (synthetic (Xanthomonas TALE)?)
[8] = test system: IL1RN TALE-C TALE-TF (VP64) (synthetic (Xanthomonas TALE)?)
[9] = target: IL1RN TALE-D TALE-TF (VP64) (synthetic (Xanthomonas TALE)?) (UniProt P14727)
[10] = test system: KLK3 TALE D TALE-TF (VP64) (synthetic (Xanthomonas TALE)?)
[11] = target: KLK3 TALE E TALE-TF (VP64) (synthetic (Xanthomonas TALE)?) (UniProt Q56830)
[12] = target: KLK3 TALE F TALE-TF (VP64) (synthetic (Xanthomonas TALE)?) (UniProt Q56830)
[13] = target: KLK3 TALE-A TALE-TF (VP64) (synthetic (Xanthomonas TALE)?) (UniProt Q56830)

CEACAM5 promoter reporter (hg19 chr19:42211804-42212651)
activity [1]: 11.6 fold RLA
activity [2]: 3.74 fold RLA
activity [3]: 4.59 fold RLA
activity [4]: 2.41 fold RLA
activity [5]: 4.7 fold RLA

IL1RN promoter reporter (hg19 chr2:113874366-113875462)
activity [6]: 14.4 fold RLA
activity [7]: 12 fold RLA
activity [8]: 6.75 fold RLA
activity [9]: 5.76 fold RLA

KLK3 promoter reporter (hg19 chr19:51357466-51358177)
activity [10]: 45.8 fold RLA
activity [11]: 2.17 fold RLA
activity [12]: 4.57 fold RLA
activity [13]: 25.1 fold RLA
